Test results taken from patent US20250122482A1.

Biological target: mouse-TfR Fab (8D3) fused to SpyCatcher
Assay: cell-based or functional assay

“soluble SpyTag peptide (peptide; modification not given; by the resolver: SpyCatcher is fused to one Fab chain and forms an isopeptide bond with SpyTag, whether soluble or on the capsid)” showed a cross conjugation signal (luciferase, transduction assay on mTfR+HEK293) (log reduction) of 2.
